Our source for the Km, kcat and kcat/Km values is the PETadex activity labels (doi:10.1016/j.bbagen.2004.12.016).

Where a chain is given by its changes, count along the chain named.

B1: unnamed (protein)
chain: MKQFSAKHALAVVVTAGHALAASTQGISEDLYTRLVEMATISQAAYADLCNIPSTIIKGEKIYNSQTDINGWILRDDSSKEIITVFRGTGSDTNLQLDTNYTLTPFDTLPQCNGCEVHGGYYIGWVSVQDQVESLVKQQVSQYPDYALTVTGHSLGASLAALTAAQLSATYDNIRLYTFGEPRSGNQAFASYMNDAFQASSPDTTQYFRVTHANDGIPNLPPVEQGYAHGGVEYWSVDPYSAQNTFVCTGDEVQCCEAQGGQGVNNAHTTYFGMTSGACTW
B2: unnamed (protein)
chain: B1 chain with D92I
B3: unnamed (protein)
chain: B1 chain with T93R
B4: unnamed (protein)
chain: B1 chain with D98I
B5: unnamed (protein)
chain: B1 chain with Y101F
B6: unnamed (protein)
chain: B1 chain with D98N

Substrate in the first data set: 2-(1-Naphthyl)butanoic acid
The conditions noted are these: pH 5; 37 °C.
As a reminder, the Km is the concentration of substrate that gives half-maximal velocity. Broadly, the kcat is the maximal rate divided by the concentration of active sites. One may read the kcat/Km as the turnover number divided by the Michaelis constant. Consider B1, for which the Km amounted to 330 µM, the kcat turned out to be 2.33 s⁻¹ and the kcat/Km came out at 7060 M⁻¹ s⁻¹.
In the same order, the values of B2 are 290 µM, 2.7 s⁻¹ and 9310 M⁻¹ s⁻¹.
For B3, in that order: 630 µM, 3.77 s⁻¹ and 5980 M⁻¹ s⁻¹.

Substrate in a further data set: alpha-Naphthyl caprylate
Particulars: pH 5; 37 °C.
Take B1: the Km worked out at 79 µM, the kcat came to 0.85 s⁻¹ and the kcat/Km came to 10800 M⁻¹ s⁻¹.
In the same order, the values of B2 are 50 µM, 0.64 s⁻¹ and 12800 M⁻¹ s⁻¹.
For B3, in that order: 17 µM, 0.32 s⁻¹ and 18800 M⁻¹ s⁻¹.
In the case of B5, the Km is 20 µM, the kcat was found to be 1.09 s⁻¹ and the kcat/Km amounted to 54500 M⁻¹ s⁻¹.

Substrate in a further data set: 2-(1-Naphthyl)butanoic acid
Particulars: pH 7.5; 37 °C.
On to B4, for which the Km was determined as 150 µM, the kcat was 3.72 s⁻¹ and the kcat/Km was determined as 24800 M⁻¹ s⁻¹.

Still in this data set, the particulars now being: pH 6; 37 °C.
As for B5, the Michaelis-Menten constant (Km) came out at 630 µM, the kcat came to 3.38 s⁻¹ and the kcat/Km was 5370 M⁻¹ s⁻¹.

Staying with this data set, now noted: pH 7; 37 °C.
Take B6: the Km was 180 µM, the kcat worked out at 32.1 s⁻¹ and the kcat/Km came to 178000 M⁻¹ s⁻¹.
